B2: cyclin-dependent kinase inhibitor 3 (CDKN3), endogenous in LC319 cells (enzyme)
chain: MKPPSSIQTSEFDSSDEEPIEDEQTPIHISWLSLSRVNCSQFLGLCALPGCKFKDVRRNVQKDTEELKSCGIQDIFVFCTRGELSKYRVPNLLDLYQQCGIITHHHPIADGGTPDIASCCEIMEELTTCLKNYRKTLIHCYGGLGRSCLVAACLLLYLSDTISPEQAIDSLRDLRGSGAIQTIKQYNYLHEFRDKLAAHLSSRDSQSRSVSR
notes: Endogenous protein in extracts of the human lung cancer cell line LC319; also called KAP; KAP1

Legend:
[1] = target: B2; experiment: co-immunoprecipitation with monoclonal anti-Flag antibody from LC319 cells
Text: The biological importance of the association of these two proteins and its potential as a therapeutic target for lung cancer was subsequently investigated. To determine the domain in EF-1delta that is required for interaction with CDKN3, each construct of EF-1delta with FLAG-HA-sequence at its N- and C-terminals were transfected into LC319 cells (EF-1delta72-160, EF-1delta161-281, EF-1delta1-160, EF-1delta72-281, and full-length EF-1delta1-281; FIG. 21B).

[2] = target: T1, eukaryotic translation elongation factor 1 delta (EF-1delta), endogenous (human, UniProt P29692 2-281); experiment: co-immunoprecipitation with anti-CDKN3 monoclonal antibody from LC319 extracts, silver stain, MALDI-TOF-MS
T1 construct: Endogenous 31-kDa protein of LC319 cells
T1 sequence: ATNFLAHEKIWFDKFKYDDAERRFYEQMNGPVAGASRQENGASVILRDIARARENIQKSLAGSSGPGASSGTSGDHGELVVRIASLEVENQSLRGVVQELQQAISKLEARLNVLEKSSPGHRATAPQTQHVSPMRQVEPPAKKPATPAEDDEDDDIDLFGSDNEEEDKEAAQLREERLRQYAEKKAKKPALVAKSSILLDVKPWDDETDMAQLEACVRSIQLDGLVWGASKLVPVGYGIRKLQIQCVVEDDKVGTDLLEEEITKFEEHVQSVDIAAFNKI
Method: Cell extracts from lung-cancer cell line LC319 were pre-cleared by incubation at 4 degree Centigrade for 1 hour with 100 micro L of protein G-agarose beads in a final volume of 2 ml of immunoprecipitation buffer [0.5% NP-40, 50 mM Tris-HCl, 150 mM NaCl] in the presence of protease inhibitor. After centrifugation at 1000 rpm for 5 min at 4 degree Centigrade, the supernatant was incubated at 4 degree Centigrade with anti-CDKN3 monoclonal antibody or normal mouse IgG, for 2 hours. The beads were then collected by centrifugation at 5000 rpm for 2 min and washed six times with 1 ml of each immunoprecipitation buffer. The washed beads were resuspended in 50 micro L of Laemmli sample buffer and boiled for 5 min, and the proteins were separated by 5-10% SDS PAGE gels (BIO RAD). After electrophoresis, the gels were stained with silver. Protein bands specifically found in extracts immunoprecipitated with anti-CDKN3 monoclonal antibody were excised and served for matrix-assisted laser desorption/ionization-time of flight mass spectrometry (MALDI-TOF-MS) analysis (AXIMA-CFR plus, SHIMADZU BIOTECH).

[3] = tested on: COS-7 cells; experiment: Autocrine assay: COS-7 cells incubated with recombinant NPTX1 protein, MTT; type: cell-based; details: NPTX1 at final concentration of 0.1 nM to 1 nM, compared with control
Text: FIG. 10. Presents the autocrine cellular growth effect of NPTX1. Part A depicts the inhibition of growth of lung cancer cells by siRNA against NPTX1. The upper panels of Part A depict the expression of NPTX1 in response to si-NPTX1s (si-1, -2) or control siRNAs (LUC or SCR) in A549 and SBC-5 cells, analyzed by RT-PCR analysis. The middle panels of Part A present images of colonies examined by colony-formation assays of the A549 and SBC-5 cells transfected with specific siRNAs for NPTX1 or control plasmids. The bottom panels of Part A present the viability of the A549 or SBC-5 cells evaluated by MTT assay in response to si-NPTX1s, -LUC, or -SCR. All assays were performed three times, and in triplicate wells. Part B presents growth-promoting effect of NPTX1 transiently overexpressed in COS-7 cells. Top panel, Transient expression of NPTX1 in COS-7 cells, detected by Western blot analysis. The bottom panels, Viability of the COS-7 cells evaluated by MTT (left) and colony formation assays (right). C, Left panel, Autocrine/paracrine effect of NPTX1 on the growth of mammalian cells. Cell viability counted by MTT assays (COS-7 cells treated with NPTX1 in final concentrations of 0, 0.1, or 1 nM) (right lanes indicated by PBS). […]

[4] = target: T2, neuronal pentraxin receptor (NPTXR), endogenous on SBC-5 lung cancer cells (human, UniProt O95502 1-500); experiment: immunocytochemistry of recipient SBC-5 cells incubated 3 hours with conditioned medium of NPTX1-transfected donor cells
T2 construct: Endogenous NPTXR of the human SCLC cell line SBC-5
T2 sequence: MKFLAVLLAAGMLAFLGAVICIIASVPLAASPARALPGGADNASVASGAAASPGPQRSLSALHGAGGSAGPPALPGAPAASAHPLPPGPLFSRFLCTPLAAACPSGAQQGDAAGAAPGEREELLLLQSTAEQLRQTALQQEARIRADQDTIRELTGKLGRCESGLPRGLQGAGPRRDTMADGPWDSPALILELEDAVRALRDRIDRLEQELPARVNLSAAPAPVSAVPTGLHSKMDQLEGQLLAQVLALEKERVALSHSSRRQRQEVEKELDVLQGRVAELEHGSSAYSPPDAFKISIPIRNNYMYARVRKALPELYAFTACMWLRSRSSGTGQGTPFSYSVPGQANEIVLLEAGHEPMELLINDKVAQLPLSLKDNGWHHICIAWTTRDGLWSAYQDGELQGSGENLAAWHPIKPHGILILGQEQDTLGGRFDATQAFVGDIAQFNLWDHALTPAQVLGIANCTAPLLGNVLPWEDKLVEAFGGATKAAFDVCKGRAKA
Method: FIG. 14: Presents internalization of NPTX1 after binding with NPTXR Part A, B, Recipient COS-7 cells (A) or SBC-5 cells (B) were incubated with conditioned medium from NPTX1-transfected (+) donor COS-7 cells or SBC-5 cells, respectively. c-myc-tagged NPTX1 was detected 3 hours after treatment of recipient cells with donor's conditioned medium. Green: NPTX1. Nuclei were visualized by DAPI. (a) Cells were stained for extracellular surface staining with anti-myc antibody for detecting NPTX1. (b) Cells were permialized by Triton X-100 and stained for NPTX1 (myc). (c) 3 hours treatment with PBS. […] 1 or 3 hours after treatment of recipient COS-7 cells with conditioned medium from donor NPTX1-transfected (+) COS-7 cells, internalized NPTX1 was detected by western blotting using anti-myc antibodies.
To determine the mechanism involved in the regulation of NPTX1/NPTXR signaling, the present inventors examined whether NPTX1/NPTXR could be internalized when cells were exposed to secreted NPTX1, through confocal microscopy observation of the subcellular distribution of the NPTX1 and NPTXR. […] The present Mentors detected binding of NPTX1 to the surface of these cells by immunocytochemistry (FIGS. 14A and 14B). […] Then, immunocytochemistry was done under membrane-permeabilizing conditions and we detected internalized exogenous NPTX1 (FIGS. 14A and 14B). […]

B1: EF-1delta161-281 (FLAG-HA-tagged deletion construct) (other, not shown: small tags and cut ends)
chain: GSDNEEEDKEAAQLREERLRQYAEKKAKKPALVAKSSILLDVKPWDDETDMAQLEACVRSIQLDGLVWGASKLVPVGYGIRKLQIQCVVEDDKVGTDLLEEEITKFEEHVQSVDIAAFNKI
notes: Lacks the N-terminal 160 amino acids of EF-1delta; also called EF-1delta 161-281 construct
binding result [1]: no binding

B2
binding result [2]: binds

B3: myc/His-tagged NPTX1 (pcDNA3.1-NPTX1-myc/His) (ligand)
chain: QDFGPTRFICTSVPVDADMCAASVAAGGAEELRSSVLQLRETVLQQKETILSQKETIRELTAKLGRCESQSTLDPGAGEARAGGGRKQPGSGKNTMGDLSRTPAAETLSQLGQTLQSLKTRLENLEQYSRLNSSSQTNSLKDLLQSKIDELERQVLSRVNTLEEGKGGPRNDTEERVKIETALTSLHQRISELEKGQKDNRPGDKFQLTFPLRTNYMYAKVKKSLPEMYAFTVCMWLKSSATPGVGTPFSYAVPGQANELVLIEWGNNPMEILINDKVAKLPFVINDGKWHHICVTWTTRDGVWEAYQDGTQGGSGENLAPYHPIKPQGVLVLGQEQDTLGGGFDATQAFVGELAHFNIWDRKLTPGEVYNLATCSTKALSGNVIAWAESHIEIYGGATKWTFEACRQIN
notes: also called c-myc-tagged NPTX1; exogenous NPTX1; not shown: myc-His tag of the pcDNA3.1 myc-His vector
COS-7 cell growth by MTT assays [3]: enhancement of the cell growth | binding result [4]: binds
